Reference: patent EP4269437A1
Several values for one entry are separate records, joined by “and”; a condition that tells them apart may be missing. Equal values may be shown once.

What was measured:
Assay in all cases: ELISA on coated protein, anti-human Fc HRP
CD28 = CD28 (UniProt P10747)
CTLA-4 = CTLA-4 (UniProt P16410)
ICOS = ICOS (UniProt Q9Y6W8)
[1] = target: cynomolgus monkey PD-1 protein (cynomolgus monkey) (UniProt B0LAJ3)
[2] = target: murine PD-1 protein (murine) (UniProt Q02242)
murine PD-1 protein (murine), sequence (Q02242 25-167 limits assumed): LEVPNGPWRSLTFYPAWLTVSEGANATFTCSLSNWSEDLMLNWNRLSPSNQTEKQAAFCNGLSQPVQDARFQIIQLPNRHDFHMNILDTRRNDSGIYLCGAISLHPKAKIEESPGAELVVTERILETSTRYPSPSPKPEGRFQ

CTLA-4, sequence (P16410 36-161 limits assumed): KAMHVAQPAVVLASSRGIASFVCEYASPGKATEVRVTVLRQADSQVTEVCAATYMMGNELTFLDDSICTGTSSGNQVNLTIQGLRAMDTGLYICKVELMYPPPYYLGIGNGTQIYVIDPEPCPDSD
ICOS, sequence (Q9Y6W8 21-140 limits assumed): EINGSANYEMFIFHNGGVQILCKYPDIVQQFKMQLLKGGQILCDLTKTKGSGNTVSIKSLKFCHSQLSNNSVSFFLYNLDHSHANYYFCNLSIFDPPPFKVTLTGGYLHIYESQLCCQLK
cynomolgus monkey PD-1 protein (cynomolgus monkey), sequence (B0LAJ3 entry or part of it limits assumed, form in doubt): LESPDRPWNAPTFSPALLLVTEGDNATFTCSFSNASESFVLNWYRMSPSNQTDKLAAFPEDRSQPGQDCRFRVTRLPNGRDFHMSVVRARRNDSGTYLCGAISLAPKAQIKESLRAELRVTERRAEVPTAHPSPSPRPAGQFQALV

Row | ELISA (OD) (CD28) | ELISA (OD) (CTLA-4) | ELISA (OD) (ICOS) | ELISA (OD) [1] | ELISA (OD) [2] | Substance
1 | 0.066 OD and 0.054 OD and 0.053 OD | 0.09 OD and 0.086 OD and 0.089 OD | 0.125 OD and 0.107 OD and 0.131 OD | 2.22 OD and 2.32 OD | 0.079 OD and 0.088 OD and 0.09 OD | Keytruda (antibody)
2 | 0.02 OD and 0.021 OD and 0.023 OD | 0.024 OD and 0.022 OD and 0.019 OD | 0.023 OD and 0.021 OD and 0.022 OD | 1.89 OD and 1.79 OD and 1.83 OD | 0.024 OD and 0.023 OD | Opdivo (antibody)
